In PMC2791412:

Target: BIQ, fluorescent reporter containing an IQ domain sequence derived from neuromodulin (UniProt P17677)
Assay: other fluorescence titration

Chain of BIQ, fluorescent reporter containing an IQ domain sequence derived from neuromodulin (P17677 31-60): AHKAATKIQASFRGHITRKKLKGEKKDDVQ

stoichiometry N: 1
Substance: calmodulin (native vertebrate CaM) (from UniProt P0DP23 1-149) (natural protein)
